Results as given in PMC4188734 (Journal of molecular biology, 2014).
Read-outs that look alike come from different tables or passages of the source.

T1: OS-9 ΔMRH (Homo sapiens, UniProt Q13438)
T1 chain: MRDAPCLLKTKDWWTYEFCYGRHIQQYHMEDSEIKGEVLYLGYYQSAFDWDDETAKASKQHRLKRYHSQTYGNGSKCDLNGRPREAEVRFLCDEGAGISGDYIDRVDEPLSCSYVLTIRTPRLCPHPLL

T2: OS-9 CTE (Homo sapiens, UniProt Q13438)
T2 chain: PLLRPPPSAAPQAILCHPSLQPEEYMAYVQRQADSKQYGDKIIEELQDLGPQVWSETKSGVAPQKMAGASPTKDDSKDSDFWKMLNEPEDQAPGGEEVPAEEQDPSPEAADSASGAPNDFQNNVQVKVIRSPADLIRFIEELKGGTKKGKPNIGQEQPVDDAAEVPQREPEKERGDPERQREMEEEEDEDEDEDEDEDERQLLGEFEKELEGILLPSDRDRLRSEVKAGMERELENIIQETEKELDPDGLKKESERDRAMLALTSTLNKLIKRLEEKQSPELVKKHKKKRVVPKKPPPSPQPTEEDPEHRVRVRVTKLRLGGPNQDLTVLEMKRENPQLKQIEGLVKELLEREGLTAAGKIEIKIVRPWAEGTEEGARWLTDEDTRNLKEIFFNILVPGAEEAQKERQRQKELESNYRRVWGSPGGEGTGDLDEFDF

B1: Grp94-C (601–754) (domain or fragment, canine, UniProt P41148 601-754, looked up)
chain: SEKTKESREAIEKEFEPLLNWMKDKALKDKIEKAVVSQRLTESPCALVASQYGWSGNMERIMKAQAYQTGKDISTNYYASQKKTFEINPRHPLIKDMLRRVKEDEDDKTVSDLAVVLFETATLRSGYLLPDTKAYGDRIERMLRLSLNIDPDAK
B2: OS-9 ΔMRH (267–666) (domain or fragment, rat, UniProt Q5RKH6 267-666, looked up)
chain: QHEEKVTEEVQDTDHQVWSGSKAAGAPPKKEDVSPTKEDKESEFWKMLQEPEEQATGTEEAQAGEQDLNHEAAADPAPAPPTDFQNNVQVKLIRSPADLIRLIEELKGAEKGKPSVRQEQPGDDTTEAPQREAEAKGKGGEPRGLVEEEDGDEEEEDEDEDEQQLLGEFEKELEGMLLPSDRERLRSEVKAGMERELENIIQETEKELDPEGLRKESEREQAILALTSTLDKLIKRLQESQSPELVQKYKKRRVVPQKPPPSPHPTEEEPEHRVRVRVTKLRHGGPNQDLTVLEMNRENPQLKQIEGLVTEVLEREGLTAEGKIEIKIVRPGAEGKEEDTRWLTDEDTRNLKEIFFNILVQGAEEANKERQRQSELESNYRRVWGSPGGEDTGDLDEFDF

What was measured:
Assay in all cases: ITC
OS-9 ΔMRH = target: T1, OS-9 ΔMRH
OS-9 ΔMRH (267–666) = target: B2
OS-9 CTE = target: T2, OS-9 CTE
Grp94-M (337–594) = Grp94-M (337–594) (canine, UniProt P41148 337-594)
Grp94-C (601–754) = target: B1
His-Grp94-MC (337–765) [1] = target: T3, His-Grp94-MC (337–765) (canine, UniProt P41148 337-765)
His-Grp94-MC (337–765) [2] = target: T3, His-Grp94-MC (337–765); remark: listed apart in the source

Row | Binder | Kd (OS-9 ΔMRH) [µM] | Kd (OS-9 ΔMRH (267–666)) [µM] | dH (OS-9 ΔMRH (267–666)) [kcal/mol] | stoichiometry N (OS-9 ΔMRH (267–666)) | Kd (OS-9 CTE) [µM] | also measured
1 | Grp94 C domain (protein) EGVKFDESEKTKESREAIEKEFEPLLNWMKDKALKDKIEKAVVSQRLTESPCALVASQYGWSGNMERIMKAQAYQTGKDISTNYYASQKKTFEINPRHPLIKDMLRRVKEDEDDKTVSDLAVVLFETATLRSGYLLPDTKAYGDRIERMLRLSLNIDPDAKVEEEPEEEPEE | 24 | – | – | – | – | –
2 | B1 | – | 24.6 ± 1.7 | -14 ± 0.7 | 1 ratio of Grp94 dimer to the OS-9 hexamer | – | –
3 | Grp94 MC domains (protein) NDIKPIWQRPSKEVEDDEYKAFYKSFSKESDDPMAYIHFTAEGEVTFKSILFVPTSAPRGLFDEYGSKKSDYIKLYVRRVFITDDFHDMMPKYLNFVKGVVDSDDLPLNVSRETLQQHKLLKVIRKKLVRKTLDMIKKIADEKYNDTFWKEFGTNIKLGVIEDHSNRTRLAKLLRFQSSHHPSDITSLDQYVERMKEKQDKIYFMAGSSRKEAESSPFVERLLKKGYEVIYLTEPVDEYCIQALPEFDGKRFQNVAKEGVKFDESEKTKESREAIEKEFEPLLNWMKDKALKDKIEKAVVSQRLTESPCALVASQYGWSGNMERIMKAQAYQTGKDISTNYYASQKKTFEINPRHPLIKDMLRRVKEDEDDKTVSDLAVVLFETATLRSGYLLPDTKAYGDRIERMLRLSLNIDPDAKVEEEPEEEPEE | – | – | -7.2 ± 2.3 | 0.15 ratio of Grp94 dimer to the OS-9 hexamer | 22 | –
4 | OS-9 CTE (589–666) (domain or fragment, rat, UniProt Q5RKH6 589-666, looked up) KIEIKIVRPGAEGKEEDTRWLTDEDTRNLKEIFFNILVQGAEEANKERQRQSELESNYRRVWGSPGGEDTGDLDEFDF | – | – | – | – | – | Kd (Grp94-M (337–594)): 14.3 ± 2.1 µM; dH (Grp94-M (337–594)): -9.1 ± 1 kcal/mol; stoichiometry N (Grp94-M (337–594)): 3.4 ratio of Grp94 monomer to the OS-9 hexamer; Kd (Grp94-C (601–754)): 15 ± 1.1 µM; dH (Grp94-C (601–754)): -33 ± 1.7 kcal/mol; stoichiometry N (Grp94-C (601–754)): 2.9 ratio of Grp94 dimer to the OS-9 hexamer; Kd (His-Grp94-MC (337–765) [1]): 22.4 ± 2 µM; dH (His-Grp94-MC (337–765) [1]): -11.6 ± 1 kcal/mol; stoichiometry N (His-Grp94-MC (337–765) [1]): 2.7 ratio of Grp94 dimer to the OS-9 hexamer
5 | B2 | – | – | – | – | – | Kd (His-Grp94-MC (337–765) [2]): 8.4 ± 2.3 µM
6 | Grp94 M domain (protein) NDIKPIWQRPSKEVEDDEYKAFYKSFSKESDDPMAYIHFTAEGEVTFKSILFVPTSAPRGLFDEYGSKKSDYIKLYVRRVFITDDFHDMMPKYLNFVKGVVDSDDLPLNVSRETLQQHKLLKVIRKKLVRKTLDMIKKIADEKYNDTFWKEFGTNIKLGVIEDHSNRTRLAKLLRFQSSHHPSDITSLDQYVERMKEKQDKIYFMAGSSRKEAESSPFVERLLKKGYEVIYLTEPVDEYCIQALPEFDGKRFQNVAKE | 25 | 25.4 ± 2.6 | -3.3 ± 0.1 | 2.8 ratio of Grp94 monomer to the OS-9 hexamer | 14 | –
